Data from patent US20220372164A1 (CITY OF HOPE, published 2022).
One block for each binder: values may come before it.

Tests used:
[1] = molecular target: T1, truncated EGFR (EGFRt) (human, UniProt P00533 334-668); assay: flow cytometry, biotinylated soluble FcγR + SA-PE on T cells
T1 construct: Expressed alone on T cells as the control without a CAR; also called huEGFRt; EGFRt marker
Method: Antibodies and Flow Cytometry. Fluorochrome-conjugated isotype controls, anti-CD3, anti-CD4, anti-CD8, anti-CD45 and streptavidin were obtained from BD Biosciences (San Jose, Calif.). Biotinylated anti-Fc was purchased from Jackson ImmunoResearch Laboratories, Inc. (West Grove, Pa.). Generation of biotinylated-cetuximab was previously described (Wang et al. 2011a). […] The percentage of immunofluorescent cells were analyzed by a FACScalibur system (BD Biosciences), and the percentage of cells in a region of analysis were calculated using FCS Express V3 (De Novo Software, CA, USA).
To determine the efficacy of the different mutations/deletion in the CAR to affect FcR binding, flow cytometric analysis was performed using various human and murine biotinylated soluble FcγRs, and PE-streptavidin (SA-PE) to detect the binding of the FcγRs to the different cell populations.

[2] = molecular target: T1, truncated EGFR (EGFRt); assay: flow cytometry, titration of biotinylated soluble human FcγR1 + SA-PE on T cells

B1: biotinylated soluble human FcγR2a (receptor, UniProt P12318 34-218, looked up)
chain: QAAAPPKAVLKLEPPWINVLQEDSVTLTCQGARSPESDSIQWFHNGNLIPTHTQPSYRFKANNNDSGEYTCQTGQTSLSDPVHLTVLSEWLVLQTPHLEFQEGETIMLRCHSWKDKPLVKVTFFQNGKSQKFSHLDPTFSIPQANHSHSGDYHCTGNIGYTLFSSKPVTITVQVPSMGSSSPMGI
modifications: biotinylated
notes: Bought reagent; also called huFcγR2a; Hu R2a
binding result [1]: no binding

B2: biotinylated soluble murine FcγR1 (receptor, UniProt P26151 25-297, looked up)
chain: EVVNATKAVITLQPPWVSIFQKENVTLWCEGPHLPGDSSTQWFINGTAVQISTPSYSIPEASFQDSGEYRCQIGSSMPSDPVQLQIHNDWLLLQASRRVLTEGEPLALRCHGWKNKLVYNVVFYRNGKSFQFSSDSEVAILKTNLSHSGIYHCSGTGRHRYTSAGVSITVKELFTTPVLRASVSSPFPEGSLVTLNCETNLLLQRPGLQLHFSFYVGSKILEYRNTSSEYHIARAEREDAGFYWCEVATEDSSVLKRSPELELQVLGPQSSAP
modifications: biotinylated
notes: Bought reagent; also called muFcγR1; Mu FcγR1
binding result [1]: no binding

B3: biotinylated soluble human Fc gamma receptor 1 (receptor, UniProt P12314 16-288, looked up)
chain: QVDTTKAVITLQPPWVSVFQEETVTLHCEVLHLPGSSSTQWFLNGTATQTSTPSYRITSASVNDSGEYRCQRGLSGRSDPIQLEIHRGWLLLQVSSRVFTEGEPLALRCHAWKDKLVYNVLYYRNGKAFKFFHWNSNLTILKTNISHNGTYHCSGMGKHRYTSAGISVTVKELFPAPVLNASVTSPLLEGNLVTLSCETKLLLQRPGLQLYFSFYMGSKTLRGRNTSSEYQILTARREDSGLYWCEAATEDGNVLKRSPELELQVLGLQLPTP
modifications: biotinylated
notes: Bought reagent; also called huFcγR1; human FcγR1
binding result [2]: no binding

Next, values leading:

binding result [1]: no binding
B4: biotinylated soluble murine FcγR2b (receptor, UniProt P08101 30-207, looked up)
chain: THDLPKAVVKLEPPWIQVLKEDTVTLTCEGTHNPGNSSTQWFHNGRSIRSQVQASYTFKATVNDSGEYRCQMEQTRLSDPVDLGVISDWLLLQTPQLVFLEGETITLRCHSWRNKLLNRISFFHNEKSVRYHHYSSNFSIPKANHSHSGDYYCKGSLGRTLHQSKPVTITVQGPKSSR
modifications: biotinylated
notes: Bought reagent; also called muFcγR2b; Mu R2b

binding result [1]: no binding
B5: biotinylated soluble human FcγR2b (receptor, UniProt P31994 43-217, looked up)
chain: TPAAPPKAVLKLEPQWINVLQEDSVTLTCRGTHSPESDSIQWFHNGNLIPTHTQPSYRFKANNNDSGEYTCQTGQTSLSDPVHLTVLSEWLVLQTPHLEFQEGETIVLRCHSWKDKPLVKVTFFQNGKSKKFSRSDPNFSIPQANHSHSGDYHCTGNIGYTLYSSKPVTITVQAP
modifications: biotinylated
notes: Bought reagent; also called huFcγR2b; Hu R2b
